Data from patent US20240285753A1 (DUKE UNIVERSITY, published 2024).
Like-named read-outs stand apart in the source and are kept apart here.

Columns and labels:
[1] = target: T1, S2hlx-Ex8-Trx; experiment: SPR, mAb captured, antigen as analyte
T1 chain: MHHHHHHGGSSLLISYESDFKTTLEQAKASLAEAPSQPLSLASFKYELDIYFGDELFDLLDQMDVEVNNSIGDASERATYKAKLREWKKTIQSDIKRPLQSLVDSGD

[2] = target: T2, S2hlx-Ex34; experiment: SPR, mAb captured, antigen as analyte
T2 chain: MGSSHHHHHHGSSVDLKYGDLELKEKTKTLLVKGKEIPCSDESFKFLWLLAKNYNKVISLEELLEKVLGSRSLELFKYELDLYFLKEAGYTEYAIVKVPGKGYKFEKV

[3] = target: CC19 LA; experiment: ELISA, coated antigen, mAb titrated
[4] = target: T3, S2hlx-Ex37; experiment: SPR, single cycle; mAb captured on Protein A, epitope scaffold as analyte
T3 chain: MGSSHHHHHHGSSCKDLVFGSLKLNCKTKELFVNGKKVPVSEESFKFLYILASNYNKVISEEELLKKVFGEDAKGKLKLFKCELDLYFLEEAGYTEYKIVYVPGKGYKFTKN

[5] = target: T4, S2hlx-Ex46; experiment: as above
T4 epitope scaffold: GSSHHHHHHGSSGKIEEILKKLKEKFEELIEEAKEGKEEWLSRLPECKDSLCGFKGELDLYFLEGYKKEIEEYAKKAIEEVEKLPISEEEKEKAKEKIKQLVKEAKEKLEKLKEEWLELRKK

[6] = target: T5, S2hlx-Ex54; experiment: as above
T5 chain: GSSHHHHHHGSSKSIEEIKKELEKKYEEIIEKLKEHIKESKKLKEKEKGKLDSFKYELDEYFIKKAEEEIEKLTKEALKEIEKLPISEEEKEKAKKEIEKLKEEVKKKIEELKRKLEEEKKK

[7] = target: T6, S2hlx-Ex15 F1148A; experiment: ELISA; antigen coated, mAb titrated
T6 epitope scaffold: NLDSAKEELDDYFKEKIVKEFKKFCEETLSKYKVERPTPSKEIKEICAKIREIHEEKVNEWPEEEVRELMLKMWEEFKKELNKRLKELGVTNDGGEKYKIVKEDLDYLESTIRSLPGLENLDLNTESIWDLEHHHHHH

[8] = target: T7, S2hlx-8; experiment: SPR, mAb captured, antigen as analyte
T7 epitope scaffold: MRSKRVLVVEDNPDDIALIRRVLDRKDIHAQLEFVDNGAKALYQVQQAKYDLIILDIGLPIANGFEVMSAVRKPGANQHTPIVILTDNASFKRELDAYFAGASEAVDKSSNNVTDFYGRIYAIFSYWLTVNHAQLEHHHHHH

[9] = target: S2hlx-4; experiment: SPR, mAb captured, antigen as analyte
Sequence of S2hlx-4 (chain, as listed by the source): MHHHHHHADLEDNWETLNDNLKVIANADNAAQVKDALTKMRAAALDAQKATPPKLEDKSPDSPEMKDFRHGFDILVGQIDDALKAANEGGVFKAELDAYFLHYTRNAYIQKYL

[10] = target: T8, S2hlx-1; experiment: SPR, mAb captured, antigen as analyte
T8 epitope scaffold: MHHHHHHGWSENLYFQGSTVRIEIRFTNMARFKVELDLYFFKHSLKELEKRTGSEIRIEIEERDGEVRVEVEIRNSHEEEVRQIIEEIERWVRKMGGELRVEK

[11] = target: T9, S2hlx-13; experiment: SPR, mAb captured, antigen as analyte
T9 epitope scaffold: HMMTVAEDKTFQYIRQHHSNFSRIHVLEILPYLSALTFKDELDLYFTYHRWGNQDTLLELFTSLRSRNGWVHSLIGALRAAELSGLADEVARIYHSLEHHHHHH

[12] = target: S2hlx-14; experiment: SPR, mAb captured, antigen as analyte
[13] = target: T7, S2hlx-8; experiment: SPR, mAb captured, antigen as analyte
[14] = target: T9, S2hlx-13; experiment: SPR, mAb captured, antigen as analyte
[15] = target: HKU-1 spike (2P) (human coronavirus HKU1); experiment: ELISA, coated spike, mAb titrated
[16] = target: S2hlx-Ex8-Trx F1148A; experiment: ELISA; antigen coated, mAb titrated

B1: S2P6 mAb (antibody, V domains shown)
VH: EVQLVQSGAEVKKPGASVKVSCKASGYTFTSQYMHWVRQAPGQGLEWIGIINPSGVHTSYAQKFQGRVTLTRDTSTSTLYMELSSLRSEDTAVYYCARGSPKGAFDYWGQGTLVTVSS
VL: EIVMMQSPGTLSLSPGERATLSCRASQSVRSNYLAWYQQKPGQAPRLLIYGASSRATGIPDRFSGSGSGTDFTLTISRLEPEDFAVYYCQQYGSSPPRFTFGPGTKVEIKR
Kd [1]: 568 nM
Kd [2]: 143 nM
EC50 (read off the curve) [3]: ~0.02 µg/mL
Kd [4]: 664 nM
Kd [5]: 296 nM
Kd [6]: 45.6 nM
EC50 (read off the curve) [7]: ~0.07 µg/mL
Kd [8]: 63 nM
Kd [9]: 47.7 nM
Kd [10]: 52.8 nM
Kd [11]: 83 nM
Kd [12]: 30 nM
Kd [13]: 63 nM
Kd [14]: 83 nM
EC50 (read off the curve) [15]: ~0.3 µg/mL
EC50 (read off the curve) [16]: ~0.04 µg/mL
